Assays:
Assay in all cases: cell-based or functional assay
[1] = target: human MIP-1α (CCL3) (human) (UniProt P10147)
[2] = target: murine MIP-1β (CCL4) (murine) (UniProt P14097)
[3] = target: murine RANTES (CCL5) (murine) (UniProt P30882)
Sequence of murine RANTES (CCL5) (murine) (P30882 24-91 limits assumed): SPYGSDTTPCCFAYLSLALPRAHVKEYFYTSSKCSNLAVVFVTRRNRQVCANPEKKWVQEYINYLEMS

Sequence of murine MIP-1β (CCL4) (murine) (P14097 24-92 limits assumed): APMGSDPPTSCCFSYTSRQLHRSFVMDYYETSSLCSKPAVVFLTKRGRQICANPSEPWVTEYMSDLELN
Sequence of human MIP-1α (CCL3) (human) (P10147 27-92 limits assumed): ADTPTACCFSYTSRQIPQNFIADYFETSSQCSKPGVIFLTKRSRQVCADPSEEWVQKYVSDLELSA

Substance	inhibition of chemokine-induced THP-1 cell migration (transwell chemotaxis assay) [1] [%]	inhibition of chemokine-induced THP-1 cell migration (transwell chemotaxis assay) [2] [%]	inhibition of chemokine-induced THP-1 cell migration (transwell chemotaxis assay) [3] [%]
hCCR5(EC2)-IgG (Fc fusion)	50	–	–
mCCR5(EC3)-IgG (Fc fusion)	–	50	50

Reference: patent publication US20100227805A1
